{"source": "patent US20090042993", "proteins": {"B1": {"name": "purified recombinant HAT fragment of p300 (histone acetyl transferase domain of recombinant CBP/p300) (protein)", "chain": "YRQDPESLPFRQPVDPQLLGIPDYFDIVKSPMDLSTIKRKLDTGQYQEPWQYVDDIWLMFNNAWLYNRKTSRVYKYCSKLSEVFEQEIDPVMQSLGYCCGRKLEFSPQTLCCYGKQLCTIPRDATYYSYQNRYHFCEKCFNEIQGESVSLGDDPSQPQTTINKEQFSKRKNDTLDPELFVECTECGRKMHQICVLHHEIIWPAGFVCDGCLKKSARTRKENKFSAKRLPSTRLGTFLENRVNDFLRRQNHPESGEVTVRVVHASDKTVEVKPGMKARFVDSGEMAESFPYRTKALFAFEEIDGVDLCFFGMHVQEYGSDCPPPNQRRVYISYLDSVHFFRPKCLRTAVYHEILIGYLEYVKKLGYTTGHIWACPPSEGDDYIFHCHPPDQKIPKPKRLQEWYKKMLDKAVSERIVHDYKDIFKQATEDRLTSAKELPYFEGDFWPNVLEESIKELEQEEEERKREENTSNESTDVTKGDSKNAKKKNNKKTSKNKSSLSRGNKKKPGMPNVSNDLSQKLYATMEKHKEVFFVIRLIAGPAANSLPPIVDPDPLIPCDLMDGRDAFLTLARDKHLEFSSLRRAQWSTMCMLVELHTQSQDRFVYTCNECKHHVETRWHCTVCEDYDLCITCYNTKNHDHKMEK"}}, "key": {"[1]": {"biological_target": "BACE1-myc (myc-tagged at the C-terminus version of BACE1), P56817", "sequence (P56817 46-501)": "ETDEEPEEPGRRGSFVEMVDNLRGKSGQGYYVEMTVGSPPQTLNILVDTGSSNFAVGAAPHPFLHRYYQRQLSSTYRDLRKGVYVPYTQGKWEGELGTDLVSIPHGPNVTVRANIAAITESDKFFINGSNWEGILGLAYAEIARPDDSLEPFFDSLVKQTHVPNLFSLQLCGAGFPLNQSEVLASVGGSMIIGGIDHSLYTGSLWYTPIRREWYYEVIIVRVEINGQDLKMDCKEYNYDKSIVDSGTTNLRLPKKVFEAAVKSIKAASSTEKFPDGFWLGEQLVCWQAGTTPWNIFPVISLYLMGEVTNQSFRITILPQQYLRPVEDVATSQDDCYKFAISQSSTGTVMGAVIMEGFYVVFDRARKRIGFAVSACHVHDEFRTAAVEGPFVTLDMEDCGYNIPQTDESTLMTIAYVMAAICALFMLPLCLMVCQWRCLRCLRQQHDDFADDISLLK"}, "[2]": {"biological_target": "BACE1 (β-site APP cleaving enzyme 1), native form BACE1WT, P56817", "sequence (P56817 46-501)": "as above"}, "[3]": {"biological_target": "BACE1Ala (BACE1 with the seven acetylated lysine residues mutated to alanine), P56817", "sequence (P56817 other isoform, or with tags, fused parts or gaps, change not shown)": "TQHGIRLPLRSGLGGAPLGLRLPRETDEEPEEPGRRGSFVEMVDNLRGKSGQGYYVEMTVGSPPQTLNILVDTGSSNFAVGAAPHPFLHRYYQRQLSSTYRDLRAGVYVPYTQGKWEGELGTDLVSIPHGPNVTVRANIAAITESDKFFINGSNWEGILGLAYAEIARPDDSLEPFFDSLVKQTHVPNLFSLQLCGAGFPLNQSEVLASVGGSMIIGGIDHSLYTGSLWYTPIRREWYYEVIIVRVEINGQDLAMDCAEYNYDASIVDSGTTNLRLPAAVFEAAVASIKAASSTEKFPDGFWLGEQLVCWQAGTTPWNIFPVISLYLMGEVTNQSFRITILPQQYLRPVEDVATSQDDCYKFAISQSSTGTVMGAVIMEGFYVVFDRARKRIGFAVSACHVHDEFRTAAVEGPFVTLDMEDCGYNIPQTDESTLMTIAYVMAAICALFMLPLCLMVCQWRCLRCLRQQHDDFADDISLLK"}}}
{"protein": "B1", "values": [{"measurement": "in vitro acetylation ([3H]Acetyl-CoA incorporation into BACE1, scintillation counting)", "setting": "[1]", "result": "BACE1 can be acetylated in vitro, provided that is incubated in the presence of an enzymatically active acetyltransferase"}, {"measurement": "in vitro acetylation ([3H]Acetyl-CoA incorporation into BACE1, scintillation counting)", "setting": "[2]", "result": "resulted in acetylation of BACE1WT"}, {"measurement": "in vitro acetylation ([3H]Acetyl-CoA incorporation into BACE1, scintillation counting)", "setting": "[3]", "result": "but not BACE1Ala"}]}
